Patent US20220362394A1 (SUTRO BIOPHARMA, published 2022)
Read-outs that look alike come from different tables or passages of the source. Blank lines part the entries; values can stand above or below the binder they belong to.

Columns and labels:
[1] = target: T1, human BCMA on cells (human, UniProt Q02223 1-184); experiment: FACS, ARP-1 cells
T1 construct: also called hBCMA; BCMA on NCI-H929, ARP-1, OPM-2, U266B1, MM.1S, RPMI-8226 cells
T1 sequence: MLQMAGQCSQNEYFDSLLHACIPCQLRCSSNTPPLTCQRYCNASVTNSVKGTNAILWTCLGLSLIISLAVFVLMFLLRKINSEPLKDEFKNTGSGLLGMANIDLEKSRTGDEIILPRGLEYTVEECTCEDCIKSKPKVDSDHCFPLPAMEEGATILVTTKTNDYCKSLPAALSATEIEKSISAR
Experimental: (§1) Cells were analyzed using a BD FACS Canto system. Fluorescence-activated cell sorting (FACS) data were analyzed using Flowjo software to calculate mean fluorescence intensity (MFI) (n=3 replicates) and data (mean MFI+/−standard error of the mean [SEM] versus nM of the antibody) was generated using the GraphPad Prism software.

[2] = target: T1, human BCMA on cells; experiment: FACS, MM.1S cells
Experimental: as §1

[3] = target: T1, human BCMA on cells; experiment: FACS, OPM-2 cells
Experimental: as §1

[4] = target: T1, human BCMA on cells; experiment: FACS, U266B1 cells
Experimental: as §1

[5] = target: T1, human BCMA on cells; experiment: FACS, NCI-H929 cells
Experimental: as §1

[6] = target: T1, human BCMA on cells; experiment: FACS, RPMI-8226 cells
Experimental: as §1

[7] = target: T1, human BCMA on cells; experiment: cell-based or functional assay
[8] = target: T1, human BCMA on cells; experiment: cell-based or functional assay; remark: listed apart in the source
[9] = target: T1, human BCMA on cells; experiment: cell-based or functional assay; remark: listed apart in the source
[10] = target: cynomolgus BCMA on cells (cynomolgus monkey, UniProt Q02223 1-184 (human entry)); experiment: FACS, 293T-cBCMA cells
Sequence of cynomolgus BCMA on cells (Q02223 other isoform, or with tags, fused parts or gaps): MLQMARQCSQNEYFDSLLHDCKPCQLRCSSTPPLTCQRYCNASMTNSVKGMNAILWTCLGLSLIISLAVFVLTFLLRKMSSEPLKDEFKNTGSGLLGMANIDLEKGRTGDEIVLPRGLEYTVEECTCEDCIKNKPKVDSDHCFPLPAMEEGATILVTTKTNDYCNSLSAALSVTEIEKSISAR
Experimental: (§2) Cells were collected, washed and resuspended in FACS buffer (DPBS buffer with 1% bovine serum albumin and 0.05% v/v sodium azide). […] Ab binding was detected with phycoerythrin-conjugated anti-human Fc Ab (Jackson ImmunoResearch, West Grove, Pa.) for 1 hour on ice. Cells were analyzed using a BD FACS Canto system.

[11] = target: T2, mouse BCMA on cells (mouse, UniProt O88472 1-185); experiment: FACS, 293T-mBCMA cells; NB: No binding
T2 construct: HEK293T cells transfected with plasmid encoding mouse BCMA (Invivogen)
T2 sequence: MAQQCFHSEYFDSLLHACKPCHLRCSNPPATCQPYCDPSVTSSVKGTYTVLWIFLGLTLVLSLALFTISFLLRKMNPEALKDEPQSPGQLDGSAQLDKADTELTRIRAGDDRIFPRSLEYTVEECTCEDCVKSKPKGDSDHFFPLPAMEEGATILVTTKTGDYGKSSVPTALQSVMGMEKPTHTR
Experimental: Cells were plated in 96-well plates (100 k per well) and incubated with antibodies (titrated half-log serial dilutions from 200 nM) for 1 hour on ice. […] Cells were analyzed using a BD LSR-Fortessa X-20 flow cytometry system. FACS data were analyzed using Flowjo software to calculate geometric fluorescence intensity (gMFI) (n=3 replicates) and data (geo. Mean MFI+/−SEM versus log nM Ab) were generated using GraphPad Prism software.

[12] = target: T3, human TACI on cells (human, UniProt O14836 1-293); experiment: flow cytometry on 293T cells stably expressing human TACI, detected with PE-conjugated anti-human Fc antibody
T3 construct: whole, on cells; also called TNFRSF13B
T3 sequence (looked up): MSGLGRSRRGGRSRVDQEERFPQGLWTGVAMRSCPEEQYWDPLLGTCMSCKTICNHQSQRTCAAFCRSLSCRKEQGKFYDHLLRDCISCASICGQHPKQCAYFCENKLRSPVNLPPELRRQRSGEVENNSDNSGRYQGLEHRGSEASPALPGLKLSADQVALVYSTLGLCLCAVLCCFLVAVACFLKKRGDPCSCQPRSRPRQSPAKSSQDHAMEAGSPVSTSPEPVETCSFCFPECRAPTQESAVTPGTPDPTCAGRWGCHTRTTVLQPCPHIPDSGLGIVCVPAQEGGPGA
Experimental: (§3) Cells were plated in 96-well plates (100K per well) and incubated with Abs. […] ADC binding was detected with phycoerythrin-conjugated anti-human Fc Ab (Jackson ImmunoResearch, West Grove, Pa.) for 1 hour on ice. Cells were analyzed using a BD FACS Canto system. FACS data were analyzed using Flowjo software to generate cell binding histograms.

[13] = target: T4, human BAFF-R on cells (human, UniProt Q96RJ3 1-184); experiment: flow cytometry on 293T cells stably expressing human BAFF-R, detected with PE-conjugated anti-human Fc antibody
T4 construct: whole, on cells; also called TNFRSF13C
Experimental: as §3

[14] = target: T1, human BCMA on cells; experiment: FACS, 293T-hBCMA cells
Experimental: as §2

Kd [1]: 1.2 nM
Kd [2]: 1.6 nM
Kd [3]: 2.3 nM
Kd [4]: 3.9 nM
Kd [5]: 2.4 nM
Kd [6]: 1.8 nM
Kd [10]: 2.7 nM
binding result [11]: no binding (tested: 200 nM)
binding result [12]: no binding (tested: 67 nM)
binding result [13]: no binding (tested: 67 nM)
B1: Conjugate 4 (antibody, human IgG1, kappa, V domains shown)
VH: EVQLVESGGGLVQPGGSLRLSCAASGFNISAPGIHWVRQAPGKGLEWVGFINPAGGYTDYADSVKGRFTISADTSKNTAYLQMNSLRAEDTAVYYCARDYIRQYWTYVLDYWGQGTLVTVSS
VL: not shown
modifications: p-azidomethyl-phenylalanine in place of HC-Y180 and HC-F404 (EU numbering), each bonded to a non-cleavable maytansine linker-warhead (Conjugate M); DAR4
notes: also called Conjugate 4 ADC; SP8919 ADC
cell killing EC50, NCI-H929, Experiment 1 [7]: 0.8 nM
cell killing EC50, NCI-H929, Experiment 2 [7]: 0.8 nM
cell killing EC50, OPM2, Experiment 1 [7]: 1.7 nM
cell killing EC50, OPM2, Experiment 2 [7]: 1.8 nM
cell killing EC50, U266B1, Experiment 1 [7]: 0.8 nM
cell killing EC50, U266B1, Experiment 2 [7]: 0.9 nM
cell killing EC50, NCI-H929, Experiment 1 [8]: 0.7 nM
cell killing EC50, NCI-H929, Experiment 2 [8]: 0.8 nM
cell killing EC50, OPM2, Experiment 1 [8]: 1.7 nM
cell killing EC50, OPM2, Experiment 2 [8]: 2 nM
cell killing EC50, U266B1, Experiment 1 [8]: 0.7 nM
cell killing EC50, U266B1, Experiment 2 [8]: 0.8 nM
cell killing EC50, ARP-1, no competing reagent [9]: 0.7 nM
cell killing EC50, NCI-H929, no competing reagent [9]: 0.9 nM
cell killing EC50, OPM2, no competing reagent [9]: 3.3 nM
cell killing EC50, U266B1, no competing reagent [9]: 0.9 nM

Kd [1]: 1 nM
Kd [2]: 0.9 nM
Kd [3]: 1.3 nM
Kd [5]: 0.9 nM
Kd [6]: 1.3 nM
Kd [10]: 2.8 nM
Kd [14]: 2.1 nM
binding result [11]: no binding (tested: 200 nM)
B2: 2265-F02 Y180/F404 (unconjugated Ab) (antibody, human IgG1, kappa, V domains shown)
VH: B1 VH
VL: not shown
modifications: p-azidomethyl-phenylalanine in place of HC-Y180 and HC-F404 (EU numbering), unconjugated
notes: also called unconjugated anti-BCMA antibody, 2265-F02; unconjugated antibody version of Conjugate 4
